Experimental data published in patent publication US20250369970A1 (ACADEMIA SINICA, published 2025).
Positions count from the first letter of the chain named.

B1: p30-091 IgG (antibody, V domains shown)
VH: EVQLVESGGGLVQPGGSLRLSCAASGFTISDYWIHWVRQAPGKGLEWVAYINPHYGLTDYADSVKGRFTISADTSKNTAYLQMNSLRAEDTAVYYCARGWLLDYWGQGTLVTVSS
VL: DIQMTQSPSSLSASVGDRVTITCKSNQNLLDSGDQGTYLNWYQQKPGKAPKLLISDVSNLYSGVPSRFSGSGSGTDFTLTISSLQPEDFATYYCYQATSFPFTFGQGTKVEIKR
B2: p30-077 IgG (antibody, V domains shown)
VH: EVQLVESGGGLVQPGGSLRLSCAASGFTIGDWGIHWVRQAPGKGLEWVAGIWPFGGFTFYADSVKGRFTISADTSKNTAYLQMNSLRAEDTAVYYCARGSFYWDYWGQGTLVTVSS
VL: DIQMTQSPSSLSASVGDRVTITCRASQDVNNNVAWYQQKPGKAPKLLISSPTYLYSGVPSRFSGSGSGTDFTLTISSLQPEDFATYYCQQWYDWPITFGQGTKVEIKR
B3: p30-052 IgG (antibody, V domains shown)
VH: EVQLVESGGGLVQPGGSLRLSCAASGFTIDSGFIHWVRQAPGKGLEWVAGIGPFWGFTFYADSVKGRFTISADTSKNTAYLQMNSLRAEDTAVYYCARYGSSSYGFDYWGQGTLVTVSS
VL: B2 VL with N30D, T52G, Y53F, W91Y, Y92F, D93N, W94F
B4: p30-090 IgG (antibody, V domains shown)
VH: EVQLVESGGGLVQPGGSLRLSCAASGFTIDGGGIHWVRQAPGKGLEWVAGIWPSWGYTYYADSVKGRFTISADTSKNTAYLQMNSLRAEDTAVYYCARGFYWYDYWGQGTLVTVSS
VL: B2 VL with N32D, S49F, S50Y, T52G, Y53G, W91S, Y92W, D93N, W94Y, I96L

Each binder was assayed against recombinant p30 protein of ASFV (African swine fever virus (ASFV), UniProt P0C9Z3 1-181) (assay: ELISA, IgG titrated on immobilized recombinant p30).

Binder	EC50
B1	2.6 ng/mL
B2	2.6 ng/mL
B3	2 ng/mL
B4	0.9 ng/mL
